Where “and” joins values, the source holds several entries; their conditions need not be identical. Equal entries are not always repeated.

Assay [1] addresses T1, human BCAM recombinant protein (SinoBiological, USA) (human, UniProt P50895 32-547).
T1 construct: Bought protein; In the sandwich ELISA it was captured by a coated anti-His antibody, which implies a His tag; also called recombinant human BCAM protein; basal cell adhesion molecule
T1 sequence (looked up): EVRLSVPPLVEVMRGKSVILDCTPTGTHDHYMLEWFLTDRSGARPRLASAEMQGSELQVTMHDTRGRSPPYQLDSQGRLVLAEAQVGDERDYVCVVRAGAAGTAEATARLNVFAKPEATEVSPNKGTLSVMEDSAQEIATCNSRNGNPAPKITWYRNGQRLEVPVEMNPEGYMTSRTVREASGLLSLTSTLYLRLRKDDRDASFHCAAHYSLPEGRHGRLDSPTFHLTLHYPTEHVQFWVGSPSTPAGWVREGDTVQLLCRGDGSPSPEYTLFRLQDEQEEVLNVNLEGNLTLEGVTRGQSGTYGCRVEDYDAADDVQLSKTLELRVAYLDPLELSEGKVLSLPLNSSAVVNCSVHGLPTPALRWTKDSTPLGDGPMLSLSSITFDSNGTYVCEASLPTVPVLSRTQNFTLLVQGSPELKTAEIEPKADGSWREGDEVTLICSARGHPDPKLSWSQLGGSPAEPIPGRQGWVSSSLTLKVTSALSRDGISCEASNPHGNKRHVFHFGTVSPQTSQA
The experiment in a line: sandwich ELISA, human BCAM captured by coated anti-His antibody, anti-human IgG Fc-HRP detection. As to the method: The binding affinity of Ab1 and Ab3 to human BCAM recombinant protein was evaluated using sandwich ELISA (Enzyme-Linked Immunosorbent Assay) method. Anti-His antibody (Biolegend, USA) diluted in PBS to 4 μg/mL was added to 96-well plate (ThermoFisher Scientific, USA) and incubated overnight at 4° C. Next day, solution containing anti-his antibody was removed, and the plate was washed 3 times with 300 μL of PBS-T (0.1% Tween-20 in PBS). The plate coated with anti-his antibody was blocked with 300 μL of 3% skim milk blocking buffer for 1 hr at room temperature. Human BCAM (SinoBiological, USA) diluted in blocking buffer to 25 nM, and 100 μL of prepared proteins was added to 96-well plate and incubated for 1 hr at room temperature. The plate was washed 3 times with 300 μL of PBS-T, and 100 μL of Ab1 and Ab3 (6.4 pM~500 nM, serial 5-fold dilution, 8 points) diluted with blocking buffer was added to each well and incubated for 1 hr at room temperature. […] The absorbance (Optical density at […]) was measured at 450 nm using Synergy H1 (BioTek, Winooski, VT). The graphs were generated as sigmoidal dose-response curves and EC₅₀ values were determined by nonlinear regression with a three-parameter logistic equation using GraphPad Prism software (GraphPad Software Inc., San Diego, CA, USA).
On the technique in general: ELISA stands for enzyme-linked immunosorbent assay.

For assay [2], the target named is T1, human BCAM recombinant protein …. Put plainly: indirect ELISA, human BCAM coated on plate at 25 nM, anti-human IgG Fc-HRP detection. As to the method: The binding affinity of Ab1 and Ab2 to human BCAM recombinant protein was evaluated using an indirect ELISA (Enzyme-Linked Immunosorbent Assay) method. Human BCAM (SinoBiological, USA) diluted in PBS to 25 nM, and 50 μL of prepared proteins was added to 96-well half plate (Costar, USA) and incubated overnight at 4° C. Next day, solution containing human BCAM was removed, and the plate was washed 3 times with 150 μL of PBS-T (0.1% Tween-20 in PBS). The plate coated with human BCAM was blocked with 150 μL of 3% BSA blocking buffer for 1 hr at 37° C. Blocking buffer was removed, and 50 μL of Ab1 and Ab2 (6 pM~1 μM, serial 3-fold dilution, 12 points), and HG4K IgG4 (SinoBiological, USA) and HG1K IgG1 (SinoBiological, USA) diluted with blocking buffer was added to each well and incubated for 2 hr at 37° C. The plate was washed 3 times with 150 μL of PBS-T, and secondary antibody (HRP-conjugated anti-human IgG Fc antibody; ThermoFisher Scientific, USA) diluted with blocking buffer (1:100,000) was added to each well and incubated for 1 hr at 37° C. […] The absorbance (Optical density at 450 nm, OD₄₅₀) was measured at 450 nm using Synergy H1 (BioTek, Winooski, VT). The graphs were generated as sigmoidal dose-response curves and EC₅₀ values were determined by nonlinear regression with a four-parameter logistic equation using GraphPad Prism software (GraphPad Software Inc., San Diego, CA, USA).

Assay [3] addresses T2, human BCAM overexpressed on HEK293FT cells (HEK293FT/hBCAM) (human, UniProt P50895 32-628).
T2 construct: whole, on cells; also called HEK293FT/hBCAM cells; BCAM-overexpressing HEK293 cells
T2 sequence (looked up): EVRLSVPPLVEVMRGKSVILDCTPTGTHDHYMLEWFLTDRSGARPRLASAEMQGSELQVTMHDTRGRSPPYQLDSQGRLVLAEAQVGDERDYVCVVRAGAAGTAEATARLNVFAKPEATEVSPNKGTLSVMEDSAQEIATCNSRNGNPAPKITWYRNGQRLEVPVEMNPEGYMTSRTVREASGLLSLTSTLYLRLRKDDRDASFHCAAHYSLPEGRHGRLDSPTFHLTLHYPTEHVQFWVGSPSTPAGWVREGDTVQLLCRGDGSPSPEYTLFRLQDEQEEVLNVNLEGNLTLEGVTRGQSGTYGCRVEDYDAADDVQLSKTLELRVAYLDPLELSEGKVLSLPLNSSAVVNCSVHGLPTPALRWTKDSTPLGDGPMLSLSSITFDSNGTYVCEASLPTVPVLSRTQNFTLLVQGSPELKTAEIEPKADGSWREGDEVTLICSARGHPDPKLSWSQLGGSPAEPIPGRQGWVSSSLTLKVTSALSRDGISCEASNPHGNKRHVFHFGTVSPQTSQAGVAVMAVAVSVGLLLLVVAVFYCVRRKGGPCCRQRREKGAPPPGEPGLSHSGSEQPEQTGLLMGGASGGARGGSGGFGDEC
Put plainly: flow cytometry on HEK293FT cells overexpressing human BCAM, geometric MFI. As to the method: The binding affinity of Ab1, Ab2 and Ab3 to HEK293FT cells overexpressing human BCAM (HEK293FT/hBCAM) was evaluated by flow cytometry analysis. HEK293FT cells (3.0×10⁶) were seeded to 10 cm cell culture dish and incubated for […], 5% CO₂ incubator. The next day, jetPRIME transfection reagent (20 μL) and human BCAM expression plasmid (10 μg) prepared in jetPRIME transfection buffer (200 μL) were mixed and incubated for 10 min at room temperature. The mixture was added to HEK293FT cells drop-wisely and incubated for 4 hr at 37° C., 5% CO₂ incubator. After 4 hr, the mixture from HEK293FT cells was replaced with fresh complete media and incubated for overnight. HEK293FT/hBCAM cells prepared at 1.0×10⁵ cells/100 μL in FACS buffer. The 100 μL of Ab1, Ab2 (3 pM~56 nM, serial 3-fold dilution, 10 points) and Ab3 (1.524 pM~30 nM, serial 3-fold dilution, 10 points), and HG4K IgG4 (SinoBiological, USA) and HG1K IgG1 (SinoBiological, USA) diluted with FACS buffer was added to cells and incubated for 30 min at 4° C. The cells were washed twice with 200 μL of FACS buffer, and then 1 μg/mL of secondary antibody (AlexaFlour® 647 AffiniPure Goat Anti-Human IgG (H+L), JacksonImmunoResearch, USA) diluted with FACS buffer was added to cells and incubated for 30 min at 4° C. in the dark. After washing twice with 200 μL of FACS buffer, and 7-AAD diluted with FACS buffer (1:100) was added to cells and transferred to FACS tubes for analysis. At least 1.0×10⁴ live cells per sample were read using FACSCantoII (BD, USA). The geometric mean fluorescence intensity for assessing the Ab1, Ab2 and Ab3 binding to hBCAM on HEK293FT/hBCAM cells was measured. The graphs were generated as sigmoidal dose-response curves and EC₅₀ values were determined by nonlinear regression with a four-parameter logistic equation using GraphPad Prism software (GraphPad Software Inc., San Diego, CA, USA). […] See FIGS. 20a and 20b and Table 1D and 1E.
For orientation: In flow cytometry, cells or beads pass a laser one at a time.

B1: Ab1 (anti-BCAM antibody, human IgG4 S228P isotype) (antibody)
heavy: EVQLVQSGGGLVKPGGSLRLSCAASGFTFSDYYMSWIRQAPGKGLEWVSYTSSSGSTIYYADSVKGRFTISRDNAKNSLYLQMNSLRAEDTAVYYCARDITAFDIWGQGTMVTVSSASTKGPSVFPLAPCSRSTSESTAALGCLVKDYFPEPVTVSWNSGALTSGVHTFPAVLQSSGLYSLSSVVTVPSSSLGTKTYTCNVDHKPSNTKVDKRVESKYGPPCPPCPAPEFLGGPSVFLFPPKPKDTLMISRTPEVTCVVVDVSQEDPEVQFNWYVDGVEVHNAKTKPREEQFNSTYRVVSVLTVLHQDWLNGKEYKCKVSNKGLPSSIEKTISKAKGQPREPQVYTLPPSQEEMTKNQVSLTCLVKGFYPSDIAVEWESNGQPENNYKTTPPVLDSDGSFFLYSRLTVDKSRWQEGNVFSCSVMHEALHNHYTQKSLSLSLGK
light: LPVLTQPPSASGSPGQSVTISCTGTSSDVGGYNYVSWYQQHPGKAPKLMIYEVNKRPSGVPDRFSGSKSGNTASLTVSGLQAEDEADYYCCSYAGSNNYVFGTGTKVTVLGQPKAAPSVTLFPPSSEELQANKATLVCLISDFYPGAVTVAWKADSSPVKAGVETTTPSKQSNNKYAASSYLSLTPEQWKSHRSYSCQVTHEGSTVEKTVAPTECS
notes: human IgG4 S228P isotype, lambda light chain; expressed in ExpiCHO-S cells
As usually defined, the EC50 is the midpoint of the concentration-response curve. With B1, the EC50 is 1.28 nM and 0.192 µg/mL in assay [1]; 0.112 nM in assay [2]; 0.184 nM and 0.027 µg/mL in assay [3].

B2: Ab2 (anti-BCAM antibody, human IgG1 isotype) (antibody)
heavy: not shown
light: B1 light
notes: human IgG1 isotype
As for B2, the EC50 is 0.078 nM in assay [2]; 0.232 nM and 0.034 µg/mL in assay [3].

B3: Ab3 (anti-BCAM antibody, human IgG1 LALA isotype) (antibody)
heavy: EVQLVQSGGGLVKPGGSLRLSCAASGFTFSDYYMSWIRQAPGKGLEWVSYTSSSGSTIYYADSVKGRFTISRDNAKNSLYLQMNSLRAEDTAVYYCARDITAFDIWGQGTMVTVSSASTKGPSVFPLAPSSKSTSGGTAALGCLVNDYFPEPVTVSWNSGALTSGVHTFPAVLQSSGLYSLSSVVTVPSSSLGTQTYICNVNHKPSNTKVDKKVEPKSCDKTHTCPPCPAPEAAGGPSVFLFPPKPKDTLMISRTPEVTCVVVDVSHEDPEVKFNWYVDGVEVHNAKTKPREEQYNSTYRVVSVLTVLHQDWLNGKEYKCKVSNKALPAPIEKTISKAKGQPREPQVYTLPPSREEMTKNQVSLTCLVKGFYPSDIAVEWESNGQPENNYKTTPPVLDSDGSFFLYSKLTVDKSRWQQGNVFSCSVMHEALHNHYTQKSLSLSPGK
light: B1 light
notes: human IgG1 LALA isotype
For the molecule B3, the EC50 in assay [1] is 1.31 nM and 0.197 µg/mL; in assay [3] it was 0.167 nM and 0.025 µg/mL.

Values taken from US20260191982A1 (GENOME, published 2026).
